Where “and” joins values, the source holds several entries; their conditions need not be identical. Equal values may be shown once. Where no end group is shown, it is not given here. Side-chain parts run from the residue outwards. [ ]: non-standard residue; d: D form. The star is where a group is joined. Stearoyl = CCCCCCCCCCCCCCCCCC(=O)*; Palmitoyl = CCCCCCCCCCCCCCCC(=O)*; Myristoyl = CCCCCCCCCCCCCC(=O)*; Glu = glutamate linker; Chl = cholesterol
B1: JM#28 (peptide)
peptide: XLRWSRKMPCVS
modifications: d-M at position 1
B2: JM#26 (peptide)
peptide: Ac-[dS]LRWSRKMPCVS
B3: JM#194 (peptide)
peptide: [dL]MRWSRK-NH2
modifications: not fully specified (residue 7)
B4: JM#18 (peptide)
peptide: ILRWSRKMPCLS
B5: JM#32 (peptide)
peptide: Ac-SMRWSRKMPCVS
B6: SEQ ID NO.: 163 (peptide)
peptide: ILRWSRK([Glu-Palmitoyl])LPSVS
B7: JM#172 (peptide)
peptide: ILRWSRK(Palmitoyl)L-NH2
modifications: N-terminus assumed
SMILES: CCCCCCCCCCCCCCCC(=O)NCCCC[C@H](NC(=O)[C@H](CCCNC(=N)N)NC(=O)[C@H](CO)NC(=O)[C@H](Cc1c[nH]c2ccccc12)NC(=O)[C@H](CCCNC(=N)N)NC(=O)[C@H](CC(C)C)NC(=O)[C@@H](N)[C@@H](C)CC)C(=O)N[C@@H](CC(C)C)C(N)=O
B8: JM#173 (peptide)
peptide: [dI]LRWSRK-NH2
B9: JM#17 (peptide)
peptide: IMRWSRKMPCVS
B10: JM#236 (peptide)
peptide: [dL]LRWSRK(Palmitoyl)-NH2
modifications: N-terminus assumed
SMILES: CCCCCCCCCCCCCCCC(=O)NCCCC[C@H](NC(=O)[C@H](CCCNC(=N)N)NC(=O)[C@H](CO)NC(=O)[C@H](Cc1c[nH]c2ccccc12)NC(=O)[C@H](CCCNC(=N)N)NC(=O)[C@H](CC(C)C)NC(=O)[C@H](N)CC(C)C)C(N)=O
B11: JM#237 (peptide)
peptide: [dI]LRWSRK(Palmitoyl)-NH2
B12: JM#41 (peptide)
peptide: IXRWSRKLPCVS
modifications: d-L at position 2
B13: JM#261 (peptide)
peptide: [dL]LRWSRK(Myristoyl)-NH2
modifications: N-terminus assumed
SMILES: CCCCCCCCCCCCCC(=O)NCCCC[C@H](NC(=O)[C@H](CCCNC(=N)N)NC(=O)[C@H](CO)NC(=O)[C@H](Cc1c[nH]c2ccccc12)NC(=O)[C@H](CCCNC(=N)N)NC(=O)[C@H](CC(C)C)NC(=O)[C@H](N)CC(C)C)C(N)=O
B14: JM#179 (peptide)
peptide: M[dL]RWSRK(Palmitoyl)LP-NH2
modifications: N-terminus assumed
SMILES: CCCCCCCCCCCCCCCC(=O)NCCCC[C@H](NC(=O)[C@H](CCCNC(=N)N)NC(=O)[C@H](CO)NC(=O)[C@H](Cc1c[nH]c2ccccc12)NC(=O)[C@H](CCCNC(=N)N)NC(=O)[C@@H](CC(C)C)NC(=O)[C@@H](N)CCSC)C(=O)N[C@@H](CC(C)C)C(=O)N1CCC[C@H]1C(N)=O
B15: JM#33 (peptide)
peptide: Ac-[dS]MRWSRKMPCVS
B16: JM#22 (peptide)
peptide: ILRWSRKFPCVS
B17: JM#182 (peptide)
peptide: ILRWSRK(Stearoyl)LPCVS
B18: JM#184 (peptide)
peptide: ILRWSRK(Chl)LPCVS
B19: JM#13 (peptide)
peptide: ILRWSRKMPCVS
B20: JM#110 (peptide)
peptide: IVRWSKK-NH2
B21: JM#204 (peptide)
peptide: ILRWSRKLPCVS
modifications: not fully specified (residue 7)
B22: JM#192 (peptide)
peptide: ILRWSRK-NH2
modifications: not fully specified (residue 7)
B23: JM#151 (peptide)
peptide: IVRWSKKVPSVS
B24: JM#19 (peptide)
peptide: ILRWSRKMPCFS
B25: JM#215 (peptide)
peptide: ILRWSRK(Dec)LPCVS
B26: JM#176 (peptide)
peptide: [dL]MRWSRK(Palmitoyl)MPCVS
B27: JM#189 (peptide)
peptide: VLRWSRKLPCVS
B28: JM#37 (peptide)
peptide: [dF]MRWSRKMPCVS
B29: SC024 (peptide)
peptide: ILRWSRKLPCVS
modifications: also: coupled to PEG 20 kDa, site not given here
B30: JM#146 (peptide)
peptide: IYRWSRKMPCLS
B31: JM#44 (peptide)
peptide: MXRWSRKMPCVS
modifications: d-L at position 2
B32: JM#175 (peptide)
peptide: [dI]LRWSRK(Palmitoyl)LP-NH2
B33: JM#148 (peptide)
peptide: ILRWSRK([Glu-Palmitoyl])MPCLS
B34: SC029 (peptide)
peptide: ILRWSRKLPCVS
modifications: also: peptide copies coupled to the two different ends of PEG 20 kDa
B35: JM#30 (peptide)
peptide: [dF]LRWSRKMPCVS
B36: JM#181 (peptide)
peptide: M[dL]RWSRK(Palmitoyl)-NH2
modifications: N-terminus assumed
SMILES: CCCCCCCCCCCCCCCC(=O)NCCCC[C@H](NC(=O)[C@H](CCCNC(=N)N)NC(=O)[C@H](CO)NC(=O)[C@H](Cc1c[nH]c2ccccc12)NC(=O)[C@H](CCCNC(=N)N)NC(=O)[C@@H](CC(C)C)NC(=O)[C@@H](N)CCSC)C(N)=O
B37: SC033 (peptide)
peptide: ILRWSRKLPCVS
modifications: also: PEG-coupled, average 5 kDa
B38: JM#168 (peptide)
peptide: IVRWSK(Palmitoyl)KVPCVS
B39: JM#29 (peptide)
peptide: [dL]LRWSRKMPCVS
B40: JM#36 (peptide)
peptide: [dL]MRWSRKMPCVS
modifications: ends and bridges not checked
B41: JM#165 (peptide)
peptide: IVRWSKK(Palmitoyl)-NH2
B42: JM#145 (peptide)
peptide: ILRWSRKLPCK([Glu-Palmitoyl])S
B43: JM#38 (peptide)
peptide: XMRWSRKMPCVS
modifications: d-G at position 1 (so in the source)
B44: JM#106 (peptide)
peptide: IVRWSKKVP-NH2
B45: JM#164 (peptide)
peptide: IVRWSK(Palmitoyl)K-NH2
B46: JM#31 (peptide)
peptide: GLRWSRKMPCVS
B47: JM#35 (peptide)
peptide: [dM]MRWSRKMPCVS
B48: JM#185 (peptide)
peptide: Ac-ILRWSRKLPCVS
B49: JM#255 (peptide)
peptide: ILRWSRK-NH2
modifications: not fully specified (residue 7)
B50: JM#42 (peptide)
peptide: I[dL]RWSRKMPCVS
B51: JM#20 (peptide)
peptide: ILRWSRKMPCMS
B52: JM#143 (peptide)
peptide: ILRWSRKLPCVS
modifications: not fully specified (residue 7)

The binders below were run against CXC chemokine receptor type 4 (CXCR4) (human, UniProt P61073 1-352) (assay: cell-based or functional assay).
Chain of CXC chemokine receptor type 4 (CXCR4) (P61073 whole entry): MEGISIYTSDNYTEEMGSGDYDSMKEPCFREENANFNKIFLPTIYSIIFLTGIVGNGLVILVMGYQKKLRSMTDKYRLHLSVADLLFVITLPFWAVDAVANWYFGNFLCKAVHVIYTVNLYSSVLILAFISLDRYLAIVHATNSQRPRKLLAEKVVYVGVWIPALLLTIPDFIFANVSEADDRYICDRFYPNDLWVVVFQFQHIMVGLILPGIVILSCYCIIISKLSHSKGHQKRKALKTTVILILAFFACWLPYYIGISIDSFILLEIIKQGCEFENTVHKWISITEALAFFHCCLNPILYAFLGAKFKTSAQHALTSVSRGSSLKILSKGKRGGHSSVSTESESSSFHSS

| Binder | IC50, HIV inhibition assay [nM] | IC50, HIV-1 inhibition assay [nM] | IC50, X4-HIV-1 inhibition assay | fold increase of anti-HIV-1 potency compared to WSC02 [fold] |
| --- | --- | --- | --- | --- |
| B1 | > 150 | 246 |  |  |
| B2 | > 150 |  |  |  |
| B3 |  |  | < 5 nM and 2 nM |  |
| B4 |  |  | < 5 nM |  |
| B5 | > 150 |  |  |  |
| B6 | > 150 |  |  |  |
| B7 | 5 to 10 |  |  |  |
| B8 | > 150 |  |  |  |
| B9 |  |  | < 5 nM |  |
| B10 | > 150 |  |  |  |
| B11 | > 150 |  |  |  |
| B12 | > 150 |  |  |  |
| B13 | > 150 |  |  |  |
| B14 | > 150 |  |  |  |
| B15 | > 150 |  |  |  |
| B16 |  |  | < 5 nM |  |
| B17 | > 150 |  |  |  |
| B18 | > 150 |  |  |  |
| B19 |  |  | < 5 nM |  |
| B20 | > 150 |  |  |  |
| B21 | > 150 |  |  |  |
| B22 |  |  | < 5 nM and 2 nM |  |
| B23 | > 150 |  |  |  |
| B24 | 5 to 10 |  |  |  |
| B25 | > 150 |  |  |  |
| B26 | > 150 |  |  |  |

| Binder | IC50, HIV inhibition assay [nM] | IC50, HIV-1 inhibition assay [nM] | IC50, X4-HIV-1 inhibition assay | fold increase of anti-HIV-1 potency compared to WSC02 [fold] |
| --- | --- | --- | --- | --- |
| B27 | > 150 |  |  |  |
| B28 | > 150 |  |  |  |
| B29 |  | 118 |  |  |
| B30 | > 150 |  |  |  |
| B31 | > 150 |  |  |  |
| B32 | > 150 |  |  |  |
| B33 | > 150 |  |  |  |
| B34 |  | 98 |  |  |
| B35 | > 150 |  |  |  |
| B36 | > 150 |  |  |  |
| B37 |  | 716 |  |  |
| B38 | > 150 |  |  |  |
| B39 | > 150 |  |  |  |
| B40 | > 150 | 206 |  |  |
| B41 | > 150 |  |  |  |
| B42 | > 150 |  |  |  |
| B43 | > 150 |  |  |  |
| B44 | > 150 |  |  |  |
| B45 | > 150 |  |  |  |
| B46 | > 150 |  |  |  |
| B47 | > 150 |  |  |  |
| B48 | > 150 |  |  |  |
| B49 |  |  | < 5 nM |  |
| B50 | > 150 |  |  |  |
| B51 |  |  | < 5 nM |  |
| B52 | > 150 |  | 5 nM | > 60 |

From US20230131339A1, “EPI-X4 BASED PEPTIDES AND DERIVATIVES THEREOF” (Universitaet Ulm, priority 2020, published 2023)
